B1: Med23 (other, mouse (murine ES cells), UniProt Q80YQ2 1-1367, looked up)
chain: METQLQSIFEEVVKTEIIEEAFPGMFMDTPEDEKTKLISCLAAFRQFWSGLSQESHEQCVQWIVKFIHGQHSPKRISFLYDCLAMAVETGLLPPRMVCESLINSDSLEWERTQLWALTFKLVRKIIGGVDYKGVRDLLKAILEKILTIPNTVSSAVVQQLLAAREVIAYILERNACLLPAYFAVTEIRKLYPEGKLPHWLLGNLVSDFVDTFRPTARINSICGRCSLLPVVNNSGAICNSWKLDPATLRFPLKGLLPYDKDLFEPQTALLRYVLEQPYSRDMVCNMLGLNKQHKQRCPVLEDQLVDLVVYAMERSETEEKFDDGGTSQLLWQHLSSQLIFFVLFQFASFPHMVLSLHQKLAGRGLIKGRDHLMWVLLQFISGSIQKNALADFLPVMKLFDLLYPEKECIPVPDINKPQSTHAFAMTCIWIHLNRKAQNGDSTLQIPIPHSLKLHHEFLQQSLRNKSLQMNDYKIALLCNAYSTNSECFTLPMGALVETIYGNGIMRVPLPGTSCLASASVTPLPMNLLDSLTVHAKMSLIHSIATRVIKLAHTKSSVALAPALVETYSRLLVYMEIESLGIKGFISQLLPTVFKSHAWGILHTLLEMFSHRMHHIQPHYRVQLLSHLHTLAAVAQTNQNQLHLCVESTALRLITALGSSEVQPQFTRFLNDPKTVLSAESEELNRALILTLARATHVTDFFTGSDSIQGTWCKDILQTIMNFTPHNWASHTLSCFPAPLQAFFKQNNVPQESRFNLKKNVEEEYRKWKSMTDENEIITQFSVQGFPPLFLCLLWKMLLETDHISQIGYKVLERIGARALVAHVRTFADFLVYEFSTSAGGQQLNKCIEILNDMVWKYNIVTLDRLILCLAMRSHEGNEAQVCYFIIQLLLLKPNDFRNRVSDFVKENSPEHWLQSDWHTKHMSYHKKYPEKLYFEGLAEQVDPPVPIQSPYLPIYFGNVCLRFLPVFDIVIHRFLELLPVSKSLETLLDHLGGLYKFHDRPVTYLYNTLHYYEMCLRNRDHLKRKLVHAIIGSLKDNRPQGWCLSDTYLKHAMNAREDNPWVPEDSYYCKLIGRLVDTMAGKSPGPFPNCDWRFNEFPNPAAHALHVTCVELMALAVPGKDVGNALLNVVLKSQPLVPRENITAWMNAIGLIITALPEPYWIVLHDRIVNVISSSSLTSETEWVGYPFRLFDFTACHQSYSEMSCSYTLALAHAVWHHSSIGQLSLIPKFLTEALLPVVKTEFQLLYVYHLVGPFLQRFQQERTRCMIEIGVAFYDMLLNVDQCSTHLNYMDPICDFLYHMKYMFTGDSVKEQVEKIICNLKPALKLRLRFITHISKMEPAVPPQALNSGSPAPQSNQVPASLPVTQ
notes: Endogenous protein in crosslinked chromatin or nuclear extract of V6.5 murine ES cells; also called mediator subunit Med23
B2: Smc1a (other, mouse (murine ES cells), UniProt Q9CU62 1-1233, looked up)
chain: MGFLKLIEIENFKSYKGRQIIGPFQRFTAIIGPNGSGKSNLMDAISFVLGEKTSNLRVKTLRDLIHGAPVGKPAANRAFVSMVYSEEGAEDRTFARVIVGGSSEYKINNKVVQLHEYSEELEKLGILIKARNFLVFQGAVESIAMKNPKERTALFEEISRSGELAQEYDKRKKEMVKAEEDTQFNYHRKKNIAAERKEAKQEKEEADRYQRLKDEVVRAQVQLQLFKLYHNEVEIEKLNKELASKNKEIEKDKKRMDKVEDELKEKKKELGKMMREQQQIEKEIKEKDSELNQKRPQYIKAKENTSHKIKKLEAAKKSLQNAQKHYKKRKGDMDELEKEMLSVEKARQEFEERMEEESQSQGRDLTLEENQVKKYHRLKEEASKRAATLAQELEKFNRDQKADQDRLDLEERKKVETEAKIKQKLREIEENQKRIEKLEEYITTSKQSLEEQKKLEGELTEEVEMAKRRIDEINKELNQVMEQLGDARIDRQESSRQQRKAEIMESIKRLYPGSVYGRLIDLCQPTQKKYQIAVTKVLGKNMDAIIVDSEKTGRDCIQYIKEQRGEPETFLPLDYLEVKPTDEKLRELKGAKLVIDVIRYEPPHIKKALQYACGNALVCDNVEDARRIAFGGHQRHKTVALDGTLFQKSGVISGGASDLKAKARRWDEKAVDKLKEKKERLTEELKEQMKAKRKEAELRQVQSQAHGLQMRLKYSQSDLEQTKTRHLALNLQEKSKLESELANFGPRINDIKRIIQSREREMKDLKEKMNQVEDEVFEEFCREIGVRNIREFEEEKVKRQNEIAKKRLEFENQKTRLGIQLDFEKNQLKEDQDKVHMWEQTVKKDENEIEKLKKEEQRHMKIIDETMAQLQDLKNQHLAKKSEVNDKNHEMEEIRKKLGGANKEMTHLQKEVTAIETKLEQKRSDRHNLLQACKMQDIKLPLSKGTMDDISQEEGSSQGEESVSGSQRTSSIYAREALIEIDYGDLCEDLKDAQAEEEIKQEMNTLQQKLNEQQSVLQRIAAPNMKAMEKLESVRDKFQETSDEFEAARKRAKKAKQAFEQIKKERFDRFNACFESVATNIDEIYKALSRNSSAQAFLGPENPEEPYLDGINYNCVAPGKRFRPMDNLSGGEKTVAALALLFAIHSYKPAPFFVLDEIDAALDNTNIGKVANYIKEQSTCNFQAIVISLKEEFYTKAESLIGVYPEQGDCVISKVLTFDLTKYPDANPNPNEQ
notes: Endogenous protein of murine ES cells; also called cohesin core complex protein Smc1a
B3: Smc3 (other, mouse (murine ES cells), UniProt Q9CW03 1-1217, looked up)
chain: MYIKQVIIQGFRSYRDQTIVDPFSSKHNVIVGRNGSGKSNFFYAIQFVLSDEFSHLRPEQRLALLHEGTGPRVISAFVEIIFDNSDNRLPIDKEEVSLRRVIGAKKDQYFLDKKMVTKNDVMNLLESAGFSRSNPYYIVKQGKINQMATAPDSQRLKLLREVAGTRVYDERKEESISLMKETEGKREKINELLKYIEERLHTLEEEKEELAQYQKWDKMRRALEYTIYNQELNETRAKLDELSAKRETSGEKSRQLRDAQQDARDKMEDIERQVRELKTKISAMKEEKEQLSAERQEQIKQRTKLELKAKDLQDELAGNSEQRKRLLKERQKLLEKIEEKQKELAETEPKFNSVKEKEERGIARLAQATQERTDLYAKQGRGSQFTSKEERDKWIKKELKSLDQAINDKKRQIAAIHKDLEDTEANKEKNLEQYNKLDQDLNEVKARVEELDRKYYEVKNKKDELQSERNYLWREENAEQQALAAKREDLEKKQQLLRAATGKAILNGIDSINKVLEHFRRKGINQHVQNGYHGIVMNNFECEPAFYTCVEVTAGNRLFYHIVDSDEVSTKILMEFNKMNLPGEVTFLPLNKLDVRDTAYPETNDAIPMISKLRYNPRFDKAFKHVFGKTLICRSMEVSTQLARAFTMDCITLEGDQVSHRGALTGGYYDTRKSRLELQKDVRKAEEELGELEAKLNENLRRNIERINNEIDQLMNQMQQIETQQRKFKASRDSILSEMKMLKEKRQQSEKTFMPKQRSLQSLEASLHAMESTRESLKAELGTDLLSQLSLEDQKRVDALNDEIRQLQQENRQLLNERIKLEGIITRVETYLNENLRKRLDQVEQELNELRETEGGTVLTATTSELEAINKRVKDTMARSEDLDNSIDKTEAGIKELQKSMERWKNMEKEHMDAINHDTKELEKMTNRQGMLLKKKEECMKKIRELGSLPQEAFEKYQTLSLKQLFRKLEQCNTELKKYSHVNKKALDQFVNFSEQKEKLIKRQEELDRGYKSIMELMNVLELRKYEAIQLTFKQVSKNFSEVFQKLVPGGKATLVMKKGDVEGSQSQDEGEGSGESERGSGSQSSVPSVDQFTGVGIRVSFTGKQGEMREMQQLSGGQKSLVALALIFAIQKCDPAPFYLFDEIDQALDAQHRKAVSDMIMELAVHAQFITTTFRPELLESADKFYGVKFRNKVSHIDVITAEMAKDFVEDDTTHG
notes: Endogenous protein of murine ES cells; also called cohesin core complex protein Smc3

Assays:
Med1 = biological target: T1, Med1 (mouse (murine ES cells), UniProt Q925J9 1-1575); test: ChIP-western: IP of crosslinked, sheared murine ES cell chromatin with anti-Med1, western blot for Med23
T1 construct: Endogenous protein immunoprecipitated from crosslinked murine ES cell chromatin; also called CRSP1/TRAP220; mediator subunit Med1
Source text: (§1) FIG. 3 Mediator and cohesin interact. a, Mediator (Med23) is detected by western blot (WB) when crosslinked, sheared chromatin is subjected to immunoprecipitation with antibodies against mediator (Med1, Med12) or cohesin (Smc1a, Smc3). WCE, whole-cell extract. b, Cohesin (Smc1a, Smc3) and mediator (Med23) are detected by western blot after immunoprecipitation of uncrosslinked ES cell nuclear extracts (NE) with a Nipb1 antibody. c, Cohesin (Smc3) and Nipb1 co-purify with mediator. The input fractions and immunoprecipitated eluate (IP Eluate) were examined by western blot and silver staining. Molecular weight (MW) markers (kDa) are shown.
(§2) For ChIP-Western, same conditions as for ChIP-Seq were used. For co-immunoprecipitation, murine ES cells were harvested in cold PBS and extracted for 30 min at 4° C. in TNEN250 (50 mM Tris pH 7.5, 5 mM EDTA, 250 mM NaCl, 0.1% NP-40) with protease inhibitors. After centrifugation, supernatant was mixed to 2 volumes of TNENG (50 mM Tris pH 7.5, 5 mM EDTA, 100 mM NaCl, 0.1% NP-40, 10% glycerol).

Med12 = biological target: T2, Med12 (mouse (murine ES cells), UniProt A2AGH6 1-2190); test: ChIP-western: IP of crosslinked, sheared murine ES cell chromatin with anti-Med12, western blot for Med23
T2 construct: Endogenous protein immunoprecipitated from crosslinked murine ES cell chromatin; also called mediator subunit Med12
Source text: as §1, §2

Med23 [1] = biological target: B1; test: ChIP-western: IP of crosslinked, sheared murine ES cell chromatin with anti-Smc1a, western blot for Med23
Source text: as §1, §2

Med23 [2] = biological target: B1; test: ChIP-western: IP of crosslinked, sheared murine ES cell chromatin with anti-Smc3, western blot for Med23
Source text: as §1, §2

T1 sequence (Q925J9 whole entry): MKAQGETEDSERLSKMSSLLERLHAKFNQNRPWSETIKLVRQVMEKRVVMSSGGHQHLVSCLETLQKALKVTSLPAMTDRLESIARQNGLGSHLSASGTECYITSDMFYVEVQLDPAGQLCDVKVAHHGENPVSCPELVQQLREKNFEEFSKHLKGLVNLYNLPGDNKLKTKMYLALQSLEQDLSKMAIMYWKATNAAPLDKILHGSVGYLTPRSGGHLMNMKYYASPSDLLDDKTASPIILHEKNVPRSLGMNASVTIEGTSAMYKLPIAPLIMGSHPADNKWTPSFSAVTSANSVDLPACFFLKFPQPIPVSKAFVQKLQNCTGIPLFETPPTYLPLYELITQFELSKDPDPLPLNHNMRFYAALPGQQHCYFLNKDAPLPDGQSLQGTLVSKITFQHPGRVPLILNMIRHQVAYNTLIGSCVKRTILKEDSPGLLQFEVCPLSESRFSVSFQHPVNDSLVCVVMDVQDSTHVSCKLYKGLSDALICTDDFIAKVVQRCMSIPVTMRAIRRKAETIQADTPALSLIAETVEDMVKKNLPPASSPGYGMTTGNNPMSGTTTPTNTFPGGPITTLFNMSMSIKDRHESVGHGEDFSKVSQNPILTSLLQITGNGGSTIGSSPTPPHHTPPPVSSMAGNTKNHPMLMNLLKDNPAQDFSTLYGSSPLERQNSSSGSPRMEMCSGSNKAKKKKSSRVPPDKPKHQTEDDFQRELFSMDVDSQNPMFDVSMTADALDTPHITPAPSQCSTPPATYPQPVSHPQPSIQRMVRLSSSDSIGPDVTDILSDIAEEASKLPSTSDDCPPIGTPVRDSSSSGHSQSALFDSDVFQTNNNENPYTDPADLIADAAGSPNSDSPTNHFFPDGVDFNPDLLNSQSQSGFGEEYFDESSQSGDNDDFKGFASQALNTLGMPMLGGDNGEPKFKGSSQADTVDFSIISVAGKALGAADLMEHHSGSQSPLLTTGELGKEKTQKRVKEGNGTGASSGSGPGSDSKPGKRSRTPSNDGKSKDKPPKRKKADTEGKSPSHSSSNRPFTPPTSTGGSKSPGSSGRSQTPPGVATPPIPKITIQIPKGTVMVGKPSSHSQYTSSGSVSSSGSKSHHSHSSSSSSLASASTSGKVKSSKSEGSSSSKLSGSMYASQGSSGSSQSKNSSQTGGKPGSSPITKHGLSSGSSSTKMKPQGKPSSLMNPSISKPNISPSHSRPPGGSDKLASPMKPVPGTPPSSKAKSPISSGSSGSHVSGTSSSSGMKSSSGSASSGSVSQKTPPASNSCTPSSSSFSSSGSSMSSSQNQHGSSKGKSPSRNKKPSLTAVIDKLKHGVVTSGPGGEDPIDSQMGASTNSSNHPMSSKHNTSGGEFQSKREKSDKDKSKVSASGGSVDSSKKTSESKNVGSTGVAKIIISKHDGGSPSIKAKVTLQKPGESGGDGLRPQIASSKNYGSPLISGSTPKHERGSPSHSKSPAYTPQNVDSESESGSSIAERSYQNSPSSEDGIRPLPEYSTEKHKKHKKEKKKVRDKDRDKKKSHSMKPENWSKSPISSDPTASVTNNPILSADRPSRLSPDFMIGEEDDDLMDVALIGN
T2 sequence (A2AGH6 whole entry): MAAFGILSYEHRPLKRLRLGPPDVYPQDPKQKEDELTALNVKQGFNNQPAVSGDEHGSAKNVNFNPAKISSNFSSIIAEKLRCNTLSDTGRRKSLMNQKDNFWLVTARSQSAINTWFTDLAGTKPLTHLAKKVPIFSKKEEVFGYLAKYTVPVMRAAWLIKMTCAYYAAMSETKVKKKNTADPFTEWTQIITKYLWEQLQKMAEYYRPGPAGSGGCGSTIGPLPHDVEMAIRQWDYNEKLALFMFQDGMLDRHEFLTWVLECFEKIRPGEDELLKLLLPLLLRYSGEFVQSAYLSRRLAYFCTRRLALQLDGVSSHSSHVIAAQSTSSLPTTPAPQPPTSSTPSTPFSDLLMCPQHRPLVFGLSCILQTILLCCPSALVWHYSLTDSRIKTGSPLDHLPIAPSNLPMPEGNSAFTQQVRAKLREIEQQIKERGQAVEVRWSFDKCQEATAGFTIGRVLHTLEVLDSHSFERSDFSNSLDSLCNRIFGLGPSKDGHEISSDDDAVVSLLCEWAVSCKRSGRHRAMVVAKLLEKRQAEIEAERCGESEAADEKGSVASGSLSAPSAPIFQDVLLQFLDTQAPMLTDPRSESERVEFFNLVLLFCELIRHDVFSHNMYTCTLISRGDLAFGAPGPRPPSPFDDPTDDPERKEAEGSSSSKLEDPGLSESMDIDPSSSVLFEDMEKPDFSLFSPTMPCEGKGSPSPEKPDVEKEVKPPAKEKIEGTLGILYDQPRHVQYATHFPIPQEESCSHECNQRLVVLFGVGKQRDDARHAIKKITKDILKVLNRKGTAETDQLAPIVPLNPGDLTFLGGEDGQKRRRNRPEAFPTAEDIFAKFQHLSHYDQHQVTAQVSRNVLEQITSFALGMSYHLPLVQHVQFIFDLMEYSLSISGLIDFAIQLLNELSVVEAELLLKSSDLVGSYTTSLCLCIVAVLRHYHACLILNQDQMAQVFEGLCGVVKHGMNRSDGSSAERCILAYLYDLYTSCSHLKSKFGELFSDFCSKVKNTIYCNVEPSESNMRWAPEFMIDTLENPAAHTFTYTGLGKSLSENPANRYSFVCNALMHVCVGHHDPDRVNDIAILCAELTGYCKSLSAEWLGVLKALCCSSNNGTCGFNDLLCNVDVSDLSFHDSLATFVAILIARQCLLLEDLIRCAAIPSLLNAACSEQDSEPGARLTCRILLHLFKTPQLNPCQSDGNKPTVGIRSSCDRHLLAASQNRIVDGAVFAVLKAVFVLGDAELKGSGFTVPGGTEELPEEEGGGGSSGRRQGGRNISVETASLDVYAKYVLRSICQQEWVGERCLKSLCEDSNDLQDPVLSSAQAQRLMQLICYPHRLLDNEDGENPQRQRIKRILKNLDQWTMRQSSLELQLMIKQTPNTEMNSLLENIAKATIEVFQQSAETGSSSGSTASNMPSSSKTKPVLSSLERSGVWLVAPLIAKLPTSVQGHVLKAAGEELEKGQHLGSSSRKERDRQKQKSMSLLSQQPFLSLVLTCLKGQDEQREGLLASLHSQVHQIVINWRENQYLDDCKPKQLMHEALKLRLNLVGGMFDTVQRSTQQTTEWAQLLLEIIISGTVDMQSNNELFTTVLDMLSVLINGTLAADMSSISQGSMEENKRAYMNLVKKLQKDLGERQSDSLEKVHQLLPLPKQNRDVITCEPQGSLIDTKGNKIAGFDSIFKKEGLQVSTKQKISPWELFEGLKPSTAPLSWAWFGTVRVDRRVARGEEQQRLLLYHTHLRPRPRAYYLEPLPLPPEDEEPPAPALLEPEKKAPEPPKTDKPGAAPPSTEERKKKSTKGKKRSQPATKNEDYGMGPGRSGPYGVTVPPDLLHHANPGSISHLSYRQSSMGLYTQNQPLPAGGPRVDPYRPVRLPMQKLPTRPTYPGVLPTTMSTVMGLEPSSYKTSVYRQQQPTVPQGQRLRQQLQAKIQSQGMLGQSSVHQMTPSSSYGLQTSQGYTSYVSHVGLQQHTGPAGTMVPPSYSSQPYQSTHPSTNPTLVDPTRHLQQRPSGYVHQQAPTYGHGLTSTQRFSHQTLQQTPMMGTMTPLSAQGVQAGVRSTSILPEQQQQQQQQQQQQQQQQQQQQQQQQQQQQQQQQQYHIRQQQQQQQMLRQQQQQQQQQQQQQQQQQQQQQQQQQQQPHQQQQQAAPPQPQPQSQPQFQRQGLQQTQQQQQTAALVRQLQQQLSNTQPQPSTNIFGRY

Binder: B1
- binding result (Med1): binds
- binding result (Med12): binds

Binder: B2
- binding result (Med23 [1]): binds

Binder: B3
- binding result (Med23 [2]): binds

Source: patent US20130109737A1 (published 2013)
